Patent US20260097113A1 (Pfizer, published 2026)

B1: AM14 (trimeric prefusion specific antibody of the AM14 ELISA) (antibody, V domains shown)
VH: EVQLVESGGGVVQPGRSLRLSCAASGFSFSHYAMHWVRQAPGKGLEWVAVISYDGENTYYADSVKGRFSISRDNSKNTVSLQMNSLRPEDTALYYCARDRIVDDYYYYGMDVWGQGATVTVSS
VL: DIQMTQSPSSLSASVGDRVTITCQASQDIKKYLNWYHQKPGKVPELLMHDASNLETGVPSRFSGRGSGTDFTLTISSLQPEDIGTYYCQQYDNLPPLTFGGGTKVEIKR
notes: Antibody as used in the AM14 ELISA, detected with an HRP-labeled secondary antibody

Experiments:
[1] = target: RSV A + RSV B bivalent composition (RSV subtype A; RSV subtype B); assay: AM14 Fab titration by SEC; Low-Fast cycle; T0
[2] = target: RSV A + RSV B bivalent composition (RSV subtype A; RSV subtype B); assay: AM14 Fab titration by SEC; Low-Fast cycle; 3 M 2-8°C
[3] = target: RSV A + RSV B bivalent composition (RSV subtype A; RSV subtype B); assay: AM14 Fab titration by SEC; composition of Table 14; Cumulative Aggressive (High-Slow) cycle
[4] = target: RSV A + RSV B bivalent composition (RSV subtype A; RSV subtype B); assay: AM14 Fab titration by SEC; High-Slow 1 cycle; 8 M 40°C
[5] = target: RSV A + RSV B bivalent composition (RSV subtype A; RSV subtype B); assay: AM14 Fab titration by SEC; composition of Table 14; Freezing Ramp Aggressive cycle
[6] = target: RSV A + RSV B bivalent composition (RSV subtype A; RSV subtype B); assay: AM14 Fab titration by SEC; High-Slow 2 cycle; 8 M 25°C
[7] = target: RSV A + RSV B bivalent composition (RSV subtype A; RSV subtype B); assay: AM14 Fab titration by SEC; Low-Fast cycle; 1 M 2-8°C
[8] = target: RSV A + RSV B bivalent composition (RSV subtype A; RSV subtype B); assay: AM14 Fab titration by SEC; High-Slow 2 cycle; 8 M 40°C
[9] = target: T1, RSV F protein of subtype A comprising a polypeptide of SEQ ID NO: 1 and a polypeptide of SEQ ID NO: 2 (RSV subtype A, UniProt P11209 137-513; P03420 26-109); assay: AM14 ELISA; F6 (pH 7, 0 mM NaCl, 4.5% sucrose); 1 wk 25°C
T1 construct: Stabilized prefusion F trimer made of three F2-F1 heterodimers; Produced recombinantly in CHO cells; also called RSV A; RSVA
T1 chain 1: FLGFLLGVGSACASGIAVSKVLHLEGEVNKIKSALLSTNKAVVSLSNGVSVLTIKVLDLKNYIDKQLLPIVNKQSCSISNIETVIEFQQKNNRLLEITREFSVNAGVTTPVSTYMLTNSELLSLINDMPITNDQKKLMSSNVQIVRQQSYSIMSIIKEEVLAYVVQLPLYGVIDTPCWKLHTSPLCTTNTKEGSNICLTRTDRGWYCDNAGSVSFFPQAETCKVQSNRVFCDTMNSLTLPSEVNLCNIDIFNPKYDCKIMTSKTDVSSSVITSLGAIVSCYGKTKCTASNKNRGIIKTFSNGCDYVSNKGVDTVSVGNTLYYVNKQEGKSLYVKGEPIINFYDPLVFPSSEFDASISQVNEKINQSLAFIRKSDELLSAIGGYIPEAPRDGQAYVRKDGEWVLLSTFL
T1 chain 2: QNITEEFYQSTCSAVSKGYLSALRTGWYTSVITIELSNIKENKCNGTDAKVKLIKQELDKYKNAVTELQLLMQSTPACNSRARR

[10] = target: T1, RSV F protein of subtype A comprising a …; assay: AM14 ELISA; F10 (pH 7, 50 mM NaCl, 4.5% sucrose); T0
[11] = target: T1, RSV F protein of subtype A comprising a …; assay: AM14 ELISA; F1 (pH 8, 100 mM NaCl, 0% sucrose); 2 wk 5°C
[12] = target: T1, RSV F protein of subtype A comprising a …; assay: AM14 ELISA; F12 (pH 8, 100 mM NaCl, 9.0% sucrose); 2 wk 25°C
[13] = target: T1, RSV F protein of subtype A comprising a …; assay: AM14 ELISA; F14 (pH 7, 50 mM NaCl, 4.5% sucrose); 2 wk 5°C
[14] = target: T1, RSV F protein of subtype A comprising a …; assay: AM14 ELISA; F12 (pH 8, 100 mM NaCl, 9.0% sucrose); 1 wk 5°C
[15] = target: T1, RSV F protein of subtype A comprising a …; assay: AM14 ELISA; F19 (pH 7, 50 mM NaCl, 3% trehalose + 3% mannitol); T0
[16] = target: T1, RSV F protein of subtype A comprising a …; assay: AM14 ELISA; F1 (pH 8, 100 mM NaCl, 0% sucrose); 1 wk 5°C
[17] = target: T1, RSV F protein of subtype A comprising a …; assay: AM14 ELISA; F13 (pH 7, 100 mM NaCl, 4.5% sucrose); 2 wk 25°C
[18] = target: T1, RSV F protein of subtype A comprising a …; assay: AM14 ELISA; F18 (pH 7, 50 mM NaCl, 3% sucrose + 3% mannitol); T0

| Molecule | Prefusion Content (%) [1] [%] | Prefusion Content (%) [2] [%] | Prefusion Content (%) [3] [%] | Prefusion Content (%) [4] [%] | Prefusion Content (%) [5] [%] | Prefusion Content (%) [6] [%] | Prefusion Content (%) [7] [%] | Prefusion Content (%) [8] [%] | AM14 prefusion content (%), relative to standard [9] [%] | AM14 prefusion content (%), relative to standard [10] [%] | AM14 prefusion content (%), relative to standard [11] [%] | AM14 prefusion content (%), relative to standard [12] [%] | AM14 prefusion content (%), relative to standard [13] [%] | AM14 prefusion content (%), relative to standard [14] [%] | AM14 prefusion content (%), relative to standard [15] [%] | AM14 prefusion content (%), relative to standard [16] [%] | AM14 prefusion content (%), relative to standard [17] [%] | AM14 prefusion content (%), relative to standard [18] [%] |
| --- | --- | --- | --- | --- | --- | --- | --- | --- | --- | --- | --- | --- | --- | --- | --- | --- | --- | --- |
| AM14 Fab | 76 | 56 | 64 | 53 | 62 | 71 | 53 | 61 |  |  |  |  |  |  |  |  |  |  |
| B1 |  |  |  |  |  |  |  |  | 102 | 104 | 100 | 55 | 78 | 98 | 93 | 96 | 37 | 91 |
